Test results from article PMC11417369, “DNA sequence and chromatin differentiate sequence-specific transcription factor binding in the human malaria parasite Plasmodium falciparum”.

T1: PF3D7_0420300 D1 (Plasmodium falciparum, UniProt Q8I1N6 1956-2015)
T1 sequence: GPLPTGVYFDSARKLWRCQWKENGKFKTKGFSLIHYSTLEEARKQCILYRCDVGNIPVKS

T2: SIP2 D1 (Plasmodium falciparum, UniProt C6KSN9 177-235)
T2 sequence: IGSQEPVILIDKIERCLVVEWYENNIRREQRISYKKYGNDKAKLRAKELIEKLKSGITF

B1: CACACA_site2053 (dsDNA)
DNA 1: AAATTTATTATGAACATACACACAAAAAAAAAAAGT
DNA 2: ACTTTTTTTTTTTGTGTGTATGTTCATAATAAATTT
B2: CACACA_site748 (dsDNA)
DNA 1: ATTTTTTTTTTTTCCTTACACACATATTTCATTTTA
DNA 2: TAAAATGAAATATGTGTGTAAGGAAAAAAAAAAAAT
B3: CACACA_site7188 (dsDNA)
DNA 1: GTGCATAAATCATACACACACACATATATAAATATA
DNA 2: TATATTTATATATGTGTGTGTGTATGATTTATGCAC
B4: CACACA_site8200 (dsDNA)
DNA 1: AAACTTAATATCGGTACACACACAAGATAAGAATTA
DNA 2: TAATTCTTATCTTGTGTGTGTACCGATATTAAGTTT
B5: CACACA_site7579 (dsDNA)
DNA 1: TATACACATATATACACACACATATATAAATAAATA
DNA 2: TATTTATTTATATATGTGTGTGTATATATGTGTATA
B6: CACACA_site8978 (dsDNA)
DNA 1: TGAGTCTTTTACATTGCACACACATTTCTTTCCTTT
DNA 2: AAAGGAAAGAAATGTGTGTGCAATGTAAAAGACTCA
B7: CACACA_site5776 (dsDNA)
DNA 1: ATTATAAATACACGCACACACACTTATATATATATA
DNA 2: TATATATATATAAGTGTGTGTGCGTGTATTTATAAT
B8: CACACA_site4903 (dsDNA)
DNA 1: AAAAACCATTGGCACACACACATAATATATAATATA
DNA 2: TATATTATATATTATGTGTGTGTGCCAATGGTTTTT
B9: GTGCAC_site10625 (dsDNA)
DNA 1: TTTTTATTTTCATATGTGCACTTATATATATATATA
DNA 2: TATATATATATATAAGTGCACATATGAAAATAAAAA
B10: GTGCAC_site10768 (dsDNA)
DNA 1: TATATATATCTTTTGGTGCATATTTCGAATATATGT
DNA 2: ACATATATTCGAAATATGCACCAAAAGATATATATA
B11: GTGCAC_site9748 (dsDNA)
DNA 1: GTTAATCACCATGTGGTGCATATAAGGGCATATTAT
DNA 2: ATAATATGCCCTTATATGCACCACATGGTGATTAAC
B12: GTGCAC_site9783 (dsDNA)
DNA 1: TAAATTTATATATAGGTGCGCAATTTGATAATAGTT
DNA 2: AACTATTATCAAATTGCGCACCTATATATAAATTTA
B13: GTGCAC_site9963 (dsDNA)
DNA 1: AATAATAAAAATATTGTGCACTTGTATATTTATTAT
DNA 2: ATAATAAATATACAAGTGCACAATATTTTTATTATT
B14: GTGCAC_site10360 (dsDNA)
DNA 1: TACCCTTGCATGTAGGTGCAATTTTTTTTTTTTTTT
DNA 2: AAAAAAAAAAAAAAATTGCACCTACATGCAAGGGTA
B15: GTGCAC_site9739 (dsDNA)
DNA 1: TTATAAATATTCACTGTGCACTGATGGAATATAAAT
DNA 2: ATTTATATTCCATCAGTGCACAGTGAATATTTATAA
B16: GTGCAC_site10077 (dsDNA)
DNA 1: TTCATTCAAATTAACGTGCACATTATTAGTAAAAAC
DNA 2: GTTTTTACTAATAATGTGCACGTTAATTTGAATGAA
B17: GTGCAC_site9916 (dsDNA)
DNA 1: TATTTCTTTTGGTTGGTGCATAAAATAATACAATAT
DNA 2: ATATTGTATTATTTTATGCACCAACCAAAAGAAATA
B18: GTGCAC_site10182 (dsDNA)
DNA 1: GTATGATGCATAAGAGTGCATAAGGATATTTCTTCA
DNA 2: TGAAGAAATATCCTTATGCACTCTTATGCATCATAC

The binders below were run against T1, PF3D7_0420300 D1 (assay: gcPBM; about 25 ug protein; PBS, 1% milk, 0.2 mg/ml BSA, salmon testes DNA, 0.03% Triton X-100). Conditions: tags: N-terminal GST (pGEX-4T-1), kept; label: surface-attached array probe.

Binder | binding signal
B1 | 9.98 ln median PBM intensity, better of two orientations
B2 | 9.99 ln median PBM intensity, better of two orientations
B3 | 9.95 ln median PBM intensity, better of two orientations
B4 | 9.96 ln median PBM intensity, better of two orientations
B5 | 9.98 ln median PBM intensity, better of two orientations
B6 | 9.97 ln median PBM intensity, better of two orientations
B7 | 9.96 ln median PBM intensity, better of two orientations
B8 | 10 ln median PBM intensity, better of two orientations

These binders were tested against T2, SIP2 D1 in the same assay as above. Conditions: tags: N-terminal GST (pGEX-4T-1), kept; label: surface-attached array probe.

Binder | binding signal
B9 | 10.1 ln median PBM intensity, better of two orientations
B10 | 10.2 ln median PBM intensity, better of two orientations
B11 | 10.1 ln median PBM intensity, better of two orientations
B12 | 10 ln median PBM intensity, better of two orientations
B13 | 9.87 ln median PBM intensity, better of two orientations
B14 | 10 ln median PBM intensity, better of two orientations
B15 | 9.91 ln median PBM intensity, better of two orientations
B16 | 10 ln median PBM intensity, better of two orientations
B17 | 10.2 ln median PBM intensity, better of two orientations
B18 | 9.94 ln median PBM intensity, better of two orientations
